Patent US11306156
Like-named read-outs stand apart in the source and are kept apart here.

Tests used:
[1] = molecular target: D3H44 Fab heavy chain L124E_K145T_Q179E; test: LCCA, SPR of light chain tags; L1:L2 DNA 1:3 normalized to 1:1; competitor m9
[2] = molecular target: D3H44 Fab heavy chain L124R_D146N_Q179K; test: as above
[3] = molecular target: D3H44 Fab heavy chain L124R_D146N_Q179K (H1 of LCCA sets 9358, 9359, 9357, 9351, 9352, 9353, 9354, 9350); test: LCCA: H1 co-expressed with L1 and L2 (DNA 333:250:749 ng), His-tag capture on SPR chip, light chain tags detected with anti-HA/anti-FLAG; competitor L2 Q124K_V133G_Q160K_S176R
[4] = molecular target: D3H44 Fab heavy chain L124E_L143E_K145T; test: LCCA, SPR of light chain tags; L1:L2 DNA 1:3 normalized to 1:1; competitor m10
[5] = molecular target: D3H44 Fab heavy chain L124R_S186K; test: as above
[6] = molecular target: D3H44 Fab heavy chain L124E_K145M_Q179E; test: LCCA, SPR of light chain tags; L1:L2 DNA 1:3 normalized to 1:1; competitor m8
[7] = molecular target: D3H44 Fab heavy chain L124R_Q179K; test: as above
[8] = molecular target: D3H44 Fab heavy chain L124E_K145T_Q179E; test: as above
[9] = molecular target: D3H44 Fab heavy chain L124R_D146N_Q179K; test: as above
[10] = molecular target: tissue factor (TF) antigen (UniProt P13726); test: SPR, His-captured Fab, TF as analyte, 1:1 fit; estimated (*) from a Fab differing only in L chain tag
[11] = molecular target: tissue factor (TF) antigen (UniProt P13726); test: SPR, His-captured Fab, TF as analyte; against wild-type D3H44 Fab; KD of this row is an estimated (*) value
[12] = molecular target: D3H44 Fab heavy chain L124R_S186R; test: LCCA, SPR of light chain tags; L1:L2 DNA 1:3 normalized to 1:1; competitor m9
[13] = molecular target: D3H44 Fab heavy chain L124E_L143D_K145T (H1 of LCCA sets 9214, 9217, 9216, 9219, 9220, 9225, 9228, 9229); test: LCCA: H1 co-expressed with L1 and L2 (DNA 333:250:749 ng), His-tag capture on SPR chip, light chain tags detected with anti-HA/anti-FLAG; competitor L1 Q124K_V133G_S176R_T178K
[14] = molecular target: D3H44 Fab heavy chain L124E_L143E_K145M (H1 of LCCA sets 9269, 9266, 9267, 9260, 9262, 9263); test: as above
[15] = molecular target: D3H44 Fab heavy chain L124E_L143E_K145M (H1 of LCCA sets 9269, 9266, 9267, 9260, 9262, 9263); test: LCCA: H1 co-expressed with L1 and L2 (DNA 333:250:749 ng), His-tag capture on SPR chip, light chain tags detected with anti-HA/anti-FLAG; competitor L1 Q124K_V133G_S176R_T178R
[16] = molecular target: D3H44 Fab heavy chain L124R_S186R; test: LCCA, SPR of light chain tags; L1:L2 DNA 1:3 normalized to 1:1; competitor m8
[17] = molecular target: D3H44 Fab heavy chain L124R_S186R (H1 of LCCA sets 9516 and 9515)
[18] = molecular target: D3H44 Fab heavy chain L124R_S186R (H1 of LCCA sets 9516 and 9515); remark: listed apart in the source
[19] = molecular target: D3H44 Fab heavy chain L124R_S186K; test: LCCA, SPR of light chain tags; L1:L2 DNA 1:3 normalized to 1:1; competitor m8
[20] = molecular target: D3H44 Fab heavy chain L124E_L143E_K145T, C-terminal ABD2-His6 tag; test: LCCA set 9271 (co-expression; SPR read-out of light-chain tags; L1:L2 DNA 1:3, normalized to 1:1); competing light chain m17
[21] = molecular target: D3H44 Fab heavy chain L124R_Q179K, C-terminal ABD2-His6 tag; test: LCCA (co-expression, SPR read-out of light chain tags), L1:L2 DNA 1:3 normalised to 1:1; competitor m13
[22] = molecular target: D3H44 Fab heavy chain L124E_L143D_K145M, C-terminal ABD2-His6 tag; test: as above
[23] = molecular target: D3H44 Fab heavy chain L124R_Q179K, C-terminal ABD2-His6 tag; test: LCCA co-expression, SPR tag read-out; DNA 1:3 norm. to 1:1; competing light chain m14
[24] = molecular target: D3H44 Fab heavy chain L124E_L143E_K145T, C-terminal ABD2-His6 tag; test: as above
[25] = molecular target: D3H44 Fab heavy chain L124E_L143E_K145M, C-terminal ABD2-His6 tag; test: LCCA co-expression, SPR tag read-out; DNA 1:3 norm. to 1:1; competing light chain m12
[26] = molecular target: D3H44 Fab heavy chain L124R_Q179K, C-terminal ABD2-His6 tag; test: as above
[27] = molecular target: D3H44 Fab heavy chain L124E_L143E_K145T, C-terminal ABD2-His6 tag; test: as above
[28] = molecular target: D3H44 Fab heavy chain L124E_L143D_K145T, C-terminal ABD2-His6 tag; test: LCCA (co-expression, SPR read-out of light chain tags), L1:L2 DNA 1:3 normalised to 1:1; competitor m14
[29] = molecular target: D3H44 Fab heavy chain L124R_Q179K, C-terminal ABD2-His6 tag; test: as above
[30] = molecular target: D3H44 Fab heavy chain L124E_L143D_K145M, C-terminal ABD2-His6 tag; test: as above
[31] = molecular target: D3H44 Fab heavy chain L124R_D146N_Q179K, C-terminal ABD2-His6 tag; test: LCCA set 9350 (co-expression; SPR read-out of light-chain tags; L1:L2 DNA 1:3, normalized to 1:1); competing light chain m17
[32] = molecular target: D3H44 Fab heavy chain L124E_L143D_K145T, C-terminal ABD2-His6 tag; test: LCCA co-expression, SPR tag read-out; DNA 1:3 norm. to 1:1; competing light chain m11
[33] = molecular target: D3H44 Fab heavy chain L124E_L143E_K145M, C-terminal ABD2-His6 tag; test: as above
[34] = molecular target: D3H44 Fab heavy chain L124R_Q179K, C-terminal ABD2-His6 tag; test: as above
[35] = molecular target: D3H44 Fab heavy chain L124E_L143E_K145T, C-terminal ABD2-His6 tag; test: as above

Substance “D3H44 light chain V133G_S176D_T178E_T180E” has an H1L1:H1L2 normalized median ratio (% of heavy chain paired) [1] of 3, an H2L2:H2L1 normalized median ratio (% of heavy chain paired) [2] of 80 and a median LCCA performance normalized to a L1:L2 DNA ratio of 1:1 (ratio H1-L1:H1-L2), H1-L1 share (ratio part of 100) [3] of 74. It also gave an H1L1:H1L2 normalized median ratio (% of heavy chain paired) [4] of 5, an H2L2:H2L1 normalized median ratio (% of heavy chain paired) [5] of 92 and an H1L1:H1L2 normalized median ratio (% of heavy chain paired) [6] of 8. For the same substance, the H2L2:H2L1 normalized median ratio (% of heavy chain paired) [7] was 93, the H1L1:H1L2 normalized median ratio (% of heavy chain paired) [8] was 5 and the H2L2:H2L1 normalized median ratio (% of heavy chain paired) [9] was 83.
“D3H44 Fab heterodimer H1L1 of LCCA Set # 9104 (H1 L124E; L1 S131T_V133G_S176R_T178Y)” gave a Kd [10] of 0.16 nM and a Change in median values of KD compared to wild type (-(log(KD design)-log(KD wt))) [11] of -0.01 log.
In the case of “D3H44 light chain V133G_S176D_T178D_T180E”, the H2L2:H2L1 normalized median ratio (% of heavy chain paired) [12] is reported as 85, the H1L1:H1L2 normalized median ratio (% of heavy chain paired) [1] is reported as 4 and the median LCCA performance normalized to a L1:L2 DNA ratio of 1:1 (ratio H1-L1:H1-L2), H1-L2 share (ratio part of 100) [13] is reported as 18. The median LCCA performance normalized to a L1:L2 DNA ratio of 1:1 (ratio H1-L1:H1-L2), H1-L2 share (ratio part of 100) [14] was 37, the median LCCA performance normalized to a L1:L2 DNA ratio of 1:1 (ratio H1-L1:H1-L2), H1-L2 share (ratio part of 100) [15] was 38 and the H1L1:H1L2 normalized median ratio (% of heavy chain paired) [6] was 6. For the same substance, the H2L2:H2L1 normalized median ratio (% of heavy chain paired) [16] was 88 and the H1L1:H1L2 normalized median ratio (% of heavy chain paired) [8] was 5.
“D3H44 light chain Q124E_V133G_S176D_T178D_T180E” showed a median LCCA performance normalized to a L1:L2 DNA ratio of 1:1 (ratio H1-L1:H1-L2), H1-L2 share (ratio part of 100) [13] of 15, a median LCCA performance normalized to a L1:L2 DNA ratio of 1:1 (ratio H1-L1:H1-L2), H1-L1 share (ratio part of 100) [17] of 95 and a median LCCA performance normalized to a L1:L2 DNA ratio of 1:1 (ratio H1-L1:H1-L2), H1-L1 share (ratio part of 100) [18] of 94. The H1L1:H1L2 normalized median ratio (% of heavy chain paired) [6] was 8, the H2L2:H2L1 normalized median ratio (% of heavy chain paired) [16] was 92 and the H2L2:H2L1 normalized median ratio (% of heavy chain paired) [19] was 92.
“D3H44 light chain Q124K_V133G_Q160K_S176R, N-terminal HA or FLAG tag” gave an H1L1:H1L2 normalized median ratio (H1L1 part) [20] of 95%, an H1L1:H1L2 normalized median scalar value ln(r1/f1) [20] of 2.92 and an H2L2:H2L1 normalized median ratio [21] of 8%. For the same substance, the H1L1:H1L2 normalized median ratio [22] was 91%, the H1L1:H1L2 normalized median scalar value ln(r1/f1) [22] was 2.36 and the H2L2:H2L1 normalized median ratio (% (ratio normalized to 100)) [23] was 10. It also gave an H1L1:H1L2 normalized median ratio (% (ratio normalized to 100)) [24] of 94, an H1L1:H1L2 normalized median ratio (% (ratio normalized to 100)) [25] of 92 and an H2L2:H2L1 normalized median ratio (% (ratio normalized to 100)) [26] of 8. For the same substance, the H1L1:H1L2 normalized median ratio (% (ratio normalized to 100)) [27] was 95, the H1L1:H1L2 normalized median scalar value ln(r1/f1) [27] was 2.92 and the H1L1:H1L2 normalized median ratio [28] was 92%. For the same substance, the H2L2:H2L1 normalized median ratio [29] was 8%, the H1L1:H1L2 normalized median ratio [30] was 92% and the H2L2:H2L1 normalized median ratio (H2L1 part) [31] was 18%. For the same substance, the H1L1:H1L2 normalized median ratio (% (ratio normalized to 100)) [32] was 94, the H1L1:H1L2 normalized median scalar value ln(r1/f1) [32] was 2.69 and the H1L1:H1L2 normalized median ratio (% (ratio normalized to 100)) [33] was 94. For the same substance, the H1L1:H1L2 normalized median scalar value ln(r1/f1) [33] was 2.72, the H2L2:H2L1 normalized median ratio (% (ratio normalized to 100)) [34] was 8 and the H1L1:H1L2 normalized median ratio (% (ratio normalized to 100)) [35] was 95. It also gave an H1L1:H1L2 normalized median scalar value ln(r1/f1) [35] of 3.
